Drawing on patent US20200246472A1, this text covers Ki for two molecules.

One may read the Ki as a measure of affinity in units of concentration, obtained from inhibition or displacement. Low values mean higher affinity, high ones lower affinity.

Square brackets hold non-standard residues; d marks the D form. Ends that are not written are not given here. Dmt = Cc1cc(O)cc(C)c1C[C@H](N)C(=O)O

What all share (assay): binding test (Ki), method not described
Test [1] has as its target MOR.
For test [2], the target named is KOR.
Test [3] addresses DOR.

Chain of MOR (P35372 whole entry): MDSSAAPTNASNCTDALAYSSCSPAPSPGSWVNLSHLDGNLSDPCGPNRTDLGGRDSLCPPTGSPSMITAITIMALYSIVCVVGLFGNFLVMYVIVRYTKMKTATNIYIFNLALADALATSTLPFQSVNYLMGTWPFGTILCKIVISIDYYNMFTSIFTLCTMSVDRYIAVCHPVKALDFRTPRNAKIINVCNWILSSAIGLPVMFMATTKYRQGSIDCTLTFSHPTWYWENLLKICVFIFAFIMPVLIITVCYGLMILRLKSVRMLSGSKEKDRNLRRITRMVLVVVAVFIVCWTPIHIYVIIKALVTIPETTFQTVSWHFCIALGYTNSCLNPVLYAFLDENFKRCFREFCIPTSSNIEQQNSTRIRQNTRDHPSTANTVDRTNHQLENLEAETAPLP

B1: CM-56 (peptide)
peptide: [Dmt]PFFQFQFK-NH2
modifications: N-terminus assumed
SMILES: Cc1cc(O)cc(C)c1C[C@H](N)C(=O)N1CCC[C@H]1C(=O)N[C@@H](Cc1ccccc1)C(=O)N[C@@H](Cc1ccccc1)C(=O)N[C@@H](CCC(N)=O)C(=O)N[C@@H](Cc1ccccc1)C(=O)N[C@@H](CCC(N)=O)C(=O)N[C@@H](Cc1ccccc1)C(=O)N[C@@H](CCCCN)C(N)=O
On to B1, for which the figures for the Ki in test [1], in test [2] and in test [3] were 65 nM, 337 nM and 176 nM, respectively.

B2: CM-58 (peptide)
peptide: [Dmt]PWFQFQFK-NH2
modifications: N-terminus assumed
SMILES: Cc1cc(O)cc(C)c1C[C@H](N)C(=O)N1CCC[C@H]1C(=O)N[C@@H](Cc1c[nH]c2ccccc12)C(=O)N[C@@H](Cc1ccccc1)C(=O)N[C@@H](CCC(N)=O)C(=O)N[C@@H](Cc1ccccc1)C(=O)N[C@@H](CCC(N)=O)C(=O)N[C@@H](Cc1ccccc1)C(=O)N[C@@H](CCCCN)C(N)=O
For B2, the inhibition constant (Ki) in test [1] amounted to 7.5 nM; in test [2], 120 nM; in test [3], 15 nM.
